Drawing on article PMC4434323, this text covers binding signal (PBM E-score (-0.5 to 0.5)) for 66 sequences.

Series [1] addresses T1, K11D2.4 (K11D2.4) (Caenorhabditis elegans) (UniProt G5EBU1).
T1 sequence: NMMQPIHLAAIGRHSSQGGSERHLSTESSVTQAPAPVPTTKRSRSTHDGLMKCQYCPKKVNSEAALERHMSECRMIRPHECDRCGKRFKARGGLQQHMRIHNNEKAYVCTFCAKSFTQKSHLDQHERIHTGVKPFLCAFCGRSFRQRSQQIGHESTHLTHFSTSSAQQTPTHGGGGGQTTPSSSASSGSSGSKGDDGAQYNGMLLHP

The target in series [2] is T2, lin-29 (W03C9.4) (Caenorhabditis elegans) (UniProt G5EGB2).
T2 sequence: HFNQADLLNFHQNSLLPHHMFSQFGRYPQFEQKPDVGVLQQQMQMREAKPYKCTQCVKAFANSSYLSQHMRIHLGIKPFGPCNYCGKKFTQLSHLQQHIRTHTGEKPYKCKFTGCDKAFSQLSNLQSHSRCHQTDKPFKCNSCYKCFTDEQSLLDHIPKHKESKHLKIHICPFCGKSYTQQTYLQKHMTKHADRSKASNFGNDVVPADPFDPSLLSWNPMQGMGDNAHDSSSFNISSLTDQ

The target in series [3] is T3, ztf-6 (W06H12.1) (Caenorhabditis elegans) (UniProt G5EC77).
T3 sequence: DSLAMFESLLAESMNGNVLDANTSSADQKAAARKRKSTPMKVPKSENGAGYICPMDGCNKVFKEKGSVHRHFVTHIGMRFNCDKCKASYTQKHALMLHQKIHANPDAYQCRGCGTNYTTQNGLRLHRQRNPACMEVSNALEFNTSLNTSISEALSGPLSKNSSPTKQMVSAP

Series [4] has as its target T4, Y53H1A.2 (Y53H1A.2) (Caenorhabditis elegans) (UniProt B1V8K4).
T4 sequence: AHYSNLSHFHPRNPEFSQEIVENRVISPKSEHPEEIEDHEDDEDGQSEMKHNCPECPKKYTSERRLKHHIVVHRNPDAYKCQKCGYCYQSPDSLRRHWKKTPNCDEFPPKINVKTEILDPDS

Series [5] has as its target T5, T22C8.4 (T22C8.4) (Caenorhabditis elegans) (UniProt Q22677).
T5 sequence: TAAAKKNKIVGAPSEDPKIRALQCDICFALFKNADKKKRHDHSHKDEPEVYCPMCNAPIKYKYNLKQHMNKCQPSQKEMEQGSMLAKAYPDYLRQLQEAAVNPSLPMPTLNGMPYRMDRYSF

In series [6] the target is T6, ztf-19 (T27B1.2) (Caenorhabditis elegans) (UniProt Q22829).
T6 sequence: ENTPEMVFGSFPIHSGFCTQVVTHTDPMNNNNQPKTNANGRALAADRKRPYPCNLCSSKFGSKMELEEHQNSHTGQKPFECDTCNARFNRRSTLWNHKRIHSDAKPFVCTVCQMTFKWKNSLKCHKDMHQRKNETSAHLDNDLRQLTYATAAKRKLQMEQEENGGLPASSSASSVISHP

Series [7] concerns the target T7, ztf-27 (T09F3.1) (Caenorhabditis elegans) (UniProt G5EDA0).
T7 sequence: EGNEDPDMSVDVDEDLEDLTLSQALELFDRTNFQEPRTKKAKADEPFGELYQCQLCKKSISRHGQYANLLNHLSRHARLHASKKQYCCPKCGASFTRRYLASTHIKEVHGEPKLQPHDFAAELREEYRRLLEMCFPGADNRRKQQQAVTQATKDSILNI

In the case of “AAAAAAAA (double strand) [8-mer AAAAAAAA]”, the binding signal (PBM E-score (-0.5 to 0.5)) in series [1] is 0.5; in series [2], 0.499.

Take “AAAAAAAC (double strand) [8-mer AAAAAAAC]”: the binding signal (PBM E-score (-0.5 to 0.5)) in series [1] came to 0.498; in series [2] it was 0.497.

Consider “AAAAAAAG (double strand) [8-mer AAAAAAAG]”, for which the binding signal (PBM E-score (-0.5 to 0.5)) stood at 0.498 in series [1] and 0.495 in series [2].

Take “AAAAAAAT (double strand) [8-mer AAAAAAAT]”: the results for the binding signal (PBM E-score (-0.5 to 0.5)) in series [1] and in series [2] were 0.498 and 0.496, respectively.

“AAAAAACT (double strand) [8-mer AAAAAACT]” showed a binding signal (PBM E-score (-0.5 to 0.5)) in series [2] of 0.495.

Take “AATTTCAG (double strand) [8-mer AATTTCAG]”: the binding signal (PBM E-score (-0.5 to 0.5)) in series [3] came out at 0.493.

“ACCACCGC (double strand) [8-mer ACCACCGC]” had a binding signal (PBM E-score (-0.5 to 0.5)) in series [4] of 0.483.

For “ACCCCTGC (double strand) [8-mer ACCCCTGC]”, in series [5], the binding signal (PBM E-score (-0.5 to 0.5)) worked out at 0.494.

For “ACCCTGCT (double strand) [8-mer ACCCTGCT]”, in series [5], the binding signal (PBM E-score (-0.5 to 0.5)) turned out to be 0.487.

Turning to “AGAAAAAA (double strand) [8-mer AGAAAAAA]”, the binding signal (PBM E-score (-0.5 to 0.5)) in series [1] was determined as 0.498; in series [2] it was 0.494.

In the case of “AGCAGGGA (double strand) [8-mer AGCAGGGA]”, the binding signal (PBM E-score (-0.5 to 0.5)) in series [5] was 0.466.

As for “AGCAGGGG (double strand) [8-mer AGCAGGGG]”, the binding signal (PBM E-score (-0.5 to 0.5)) in series [5] was 0.499.

In the case of “AGCTGAAA (double strand) [8-mer AGCTGAAA]”, the binding signal (PBM E-score (-0.5 to 0.5)) in series [3] came to 0.491.

For the sequence “AGTGTAAA (double strand) [8-mer AGTGTAAA]”, in series [6], the binding signal (PBM E-score (-0.5 to 0.5)) came to 0.494.

On to “AGTGTAAC (double strand) [8-mer AGTGTAAC]”, for which the binding signal (PBM E-score (-0.5 to 0.5)) in series [6] was determined as 0.491.

In the case of “AGTGTAAT (double strand) [8-mer AGTGTAAT]”, in series [6], the binding signal (PBM E-score (-0.5 to 0.5)) was 0.497.

“AGTTTCAG (double strand) [8-mer AGTTTCAG]” gave a binding signal (PBM E-score (-0.5 to 0.5)) in series [3] of 0.496.

As to “ATAAAAAA (double strand) [8-mer ATAAAAAA]”, the binding signal (PBM E-score (-0.5 to 0.5)) in series [1] and in series [2] was 0.498 each time.

“ATCTGAAA (double strand) [8-mer ATCTGAAA]” yielded a binding signal (PBM E-score (-0.5 to 0.5)) in series [3] of 0.492.

For the sequence “ATTACAAC (double strand) [8-mer ATTACAAC]”, the binding signal (PBM E-score (-0.5 to 0.5)) in series [6] amounted to 0.496.

Consider “ATTACACA (double strand) [8-mer ATTACACA]”, for which, in series [6], the binding signal (PBM E-score (-0.5 to 0.5)) is 0.493.

In series [3], “ATTTCAGA (double strand) [8-mer ATTTCAGA]” yielded a binding signal (PBM E-score (-0.5 to 0.5)) of 0.491.

For “ATTTCAGC (double strand) [8-mer ATTTCAGC]”, the binding signal (PBM E-score (-0.5 to 0.5)) in series [3] is 0.492.

Sequence “ATTTTCAG (double strand) [8-mer ATTTTCAG]” registered a binding signal (PBM E-score (-0.5 to 0.5)) in series [3] of 0.493.

For “CAAAAAAA (double strand) [8-mer CAAAAAAA]”, the binding signal (PBM E-score (-0.5 to 0.5)) in series [1] amounted to 0.498; in series [2], 0.496.

“CACCCTGC (double strand) [8-mer CACCCTGC]”: in series [5], the binding signal (PBM E-score (-0.5 to 0.5)) came to 0.49.

Sequence “CAGCAGGG (double strand) [8-mer CAGCAGGG]” registered a binding signal (PBM E-score (-0.5 to 0.5)) in series [5] of 0.494.

Regarding “CAGTGTAA (double strand) [8-mer CAGTGTAA]”, the binding signal (PBM E-score (-0.5 to 0.5)) in series [6] amounted to 0.494.

Turning to “CATAAAAA (double strand) [8-mer CATAAAAA]”, the binding signal (PBM E-score (-0.5 to 0.5)) in series [2] was found to be 0.494.

In series [6], “CATTACAC (double strand) [8-mer CATTACAC]” showed a binding signal (PBM E-score (-0.5 to 0.5)) of 0.494.

For the sequence “CCACCACC (double strand) [8-mer CCACCACC]”, the binding signal (PBM E-score (-0.5 to 0.5)) in series [4] amounted to 0.486.

For the sequence “CCCCCTGC (double strand) [8-mer CCCCCTGC]”, in series [5], the binding signal (PBM E-score (-0.5 to 0.5)) amounted to 0.488.

“CCCCTGCA (double strand) [8-mer CCCCTGCA]” yielded a binding signal (PBM E-score (-0.5 to 0.5)) in series [5] of 0.493.

In series [5], “CCCCTGCC (double strand) [8-mer CCCCTGCC]” showed a binding signal (PBM E-score (-0.5 to 0.5)) of 0.479.

“CCCCTGCG (double strand) [8-mer CCCCTGCG]” registered a binding signal (PBM E-score (-0.5 to 0.5)) in series [5] of 0.493.

In series [5], “CCCTGCAG (double strand) [8-mer CCCTGCAG]” yielded a binding signal (PBM E-score (-0.5 to 0.5)) of 0.483.

Sequence “CCCTGCTA (double strand) [8-mer CCCTGCTA]” gave a binding signal (PBM E-score (-0.5 to 0.5)) in series [5] of 0.486.

The sequence “CCCTGCTC (double strand) [8-mer CCCTGCTC]” showed a binding signal (PBM E-score (-0.5 to 0.5)) in series [5] of 0.479.

As to “CGACCACC (double strand) [8-mer CGACCACC]”, the binding signal (PBM E-score (-0.5 to 0.5)) in series [4] was 0.486.

As for “CGCTGAAA (double strand) [8-mer CGCTGAAA]”, in series [3], the binding signal (PBM E-score (-0.5 to 0.5)) was found to be 0.49.

In series [4], “CGGCCGAC (double strand) [8-mer CGGCCGAC]” yielded a binding signal (PBM E-score (-0.5 to 0.5)) of 0.486.

Take “CGTTGTAA (double strand) [8-mer CGTTGTAA]”: in series [6], the binding signal (PBM E-score (-0.5 to 0.5)) was found to be 0.493.

Turning to “CTTTACAC (double strand) [8-mer CTTTACAC]”, the binding signal (PBM E-score (-0.5 to 0.5)) in series [6] came out at 0.494.

For the sequence “GAAAAAAA (double strand) [8-mer GAAAAAAA]”, the binding signal (PBM E-score (-0.5 to 0.5)) in series [1] came out at 0.498; in series [2], 0.495.

In series [2], “GCAAAAAA (double strand) [8-mer GCAAAAAA]” displayed a binding signal (PBM E-score (-0.5 to 0.5)) of 0.494.

As for “GCAGGGGA (double strand) [8-mer GCAGGGGA]”, the binding signal (PBM E-score (-0.5 to 0.5)) in series [5] is 0.495.

In the case of “GCAGGGGC (double strand) [8-mer GCAGGGGC]”, the binding signal (PBM E-score (-0.5 to 0.5)) in series [5] worked out at 0.498.

For “GCTGAAAA (double strand) [8-mer GCTGAAAA]”, in series [3], the binding signal (PBM E-score (-0.5 to 0.5)) turned out to be 0.492.

Take “GCTGAAAC (double strand) [8-mer GCTGAAAC]”: the binding signal (PBM E-score (-0.5 to 0.5)) in series [3] was 0.495.

In turn, “GGCTGAAA (double strand) [8-mer GGCTGAAA]” gave a binding signal (PBM E-score (-0.5 to 0.5)) in series [3] of 0.491.

Regarding “GTAAAAAA (double strand) [8-mer GTAAAAAA]”, in series [2], the binding signal (PBM E-score (-0.5 to 0.5)) stood at 0.494.

“GTCTGAAA (double strand) [8-mer GTCTGAAA]” returned a binding signal (PBM E-score (-0.5 to 0.5)) in series [3] of 0.495.

In the case of “GTGTAACA (double strand) [8-mer GTGTAACA]”, the binding signal (PBM E-score (-0.5 to 0.5)) in series [6] came to 0.494.

“GTGTAATA (double strand) [8-mer GTGTAATA]” gave a binding signal (PBM E-score (-0.5 to 0.5)) in series [6] of 0.497.

The sequence “GTTTCAGA (double strand) [8-mer GTTTCAGA]” gave a binding signal (PBM E-score (-0.5 to 0.5)) in series [3] of 0.494.

Sequence “GTTTTTTA (double strand) [8-mer GTTTTTTA]” returned a binding signal (PBM E-score (-0.5 to 0.5)) in series [2] of 0.494.

Turning to “TAAAAAAA (double strand) [8-mer TAAAAAAA]”, the binding signal (PBM E-score (-0.5 to 0.5)) in series [1] and in series [2] was 0.498 in each case.

On to “TAGTGTAA (double strand) [8-mer TAGTGTAA]”, for which, in series [6], the binding signal (PBM E-score (-0.5 to 0.5)) stood at 0.495.

For “TATAAAAA (double strand) [8-mer TATAAAAA]”, the binding signal (PBM E-score (-0.5 to 0.5)) in series [2] turned out to be 0.494.

With “TCTGAAAA (double strand) [8-mer TCTGAAAA]”, the binding signal (PBM E-score (-0.5 to 0.5)) in series [3] came to 0.492.

Sequence “TGCACCAA (double strand) [8-mer TGCACCAA]” yielded a binding signal (PBM E-score (-0.5 to 0.5)) in series [7] of 0.488.

In the case of “TGCGCCAA (double strand) [8-mer TGCGCCAA]”, the binding signal (PBM E-score (-0.5 to 0.5)) in series [7] is 0.478.

“TGCTGAAA (double strand) [8-mer TGCTGAAA]” gave a binding signal (PBM E-score (-0.5 to 0.5)) in series [3] of 0.494.

In series [7], “TGGTGCAA (double strand) [8-mer TGGTGCAA]” gave a binding signal (PBM E-score (-0.5 to 0.5)) of 0.483.

The sequence “TGGTGTAA (double strand) [8-mer TGGTGTAA]” yielded a binding signal (PBM E-score (-0.5 to 0.5)) in series [7] of 0.48.

As for “TGTGTAAA (double strand) [8-mer TGTGTAAA]”, the binding signal (PBM E-score (-0.5 to 0.5)) in series [6] is 0.491.
